For the substance “PACE4 (Plasminogen Angiostatin Converting Enzyme of pH 4)”, in the data set on plasminogen (Glu-1), the “fragmentation of plasminogen (SDS-PAGE) at neutral and acidic pH” value is on record as “the enzyme of the present invention fragments plasminogen only at an acidic range of pH”. The “degradation of fibronectin by the enzyme” value with fibronectin is reported as “Fibronectin was degraded restrictedly with this enzyme”.

Chain of PACE4 (Plasminogen Angiostatin Converting Enzyme of pH 4) (chain, as listed by the source): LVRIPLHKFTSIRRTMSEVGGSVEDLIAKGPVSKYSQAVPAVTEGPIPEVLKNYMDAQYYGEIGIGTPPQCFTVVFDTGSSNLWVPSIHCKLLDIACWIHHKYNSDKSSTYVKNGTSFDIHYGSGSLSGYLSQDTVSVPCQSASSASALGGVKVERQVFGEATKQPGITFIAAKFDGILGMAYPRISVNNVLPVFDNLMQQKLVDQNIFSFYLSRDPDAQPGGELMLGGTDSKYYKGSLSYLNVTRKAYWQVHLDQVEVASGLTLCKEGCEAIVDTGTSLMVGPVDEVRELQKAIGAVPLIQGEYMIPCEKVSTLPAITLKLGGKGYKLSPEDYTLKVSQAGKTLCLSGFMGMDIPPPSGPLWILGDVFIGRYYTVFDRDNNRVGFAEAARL
Chain of plasminogen (Glu-1) (chain, as listed by the source): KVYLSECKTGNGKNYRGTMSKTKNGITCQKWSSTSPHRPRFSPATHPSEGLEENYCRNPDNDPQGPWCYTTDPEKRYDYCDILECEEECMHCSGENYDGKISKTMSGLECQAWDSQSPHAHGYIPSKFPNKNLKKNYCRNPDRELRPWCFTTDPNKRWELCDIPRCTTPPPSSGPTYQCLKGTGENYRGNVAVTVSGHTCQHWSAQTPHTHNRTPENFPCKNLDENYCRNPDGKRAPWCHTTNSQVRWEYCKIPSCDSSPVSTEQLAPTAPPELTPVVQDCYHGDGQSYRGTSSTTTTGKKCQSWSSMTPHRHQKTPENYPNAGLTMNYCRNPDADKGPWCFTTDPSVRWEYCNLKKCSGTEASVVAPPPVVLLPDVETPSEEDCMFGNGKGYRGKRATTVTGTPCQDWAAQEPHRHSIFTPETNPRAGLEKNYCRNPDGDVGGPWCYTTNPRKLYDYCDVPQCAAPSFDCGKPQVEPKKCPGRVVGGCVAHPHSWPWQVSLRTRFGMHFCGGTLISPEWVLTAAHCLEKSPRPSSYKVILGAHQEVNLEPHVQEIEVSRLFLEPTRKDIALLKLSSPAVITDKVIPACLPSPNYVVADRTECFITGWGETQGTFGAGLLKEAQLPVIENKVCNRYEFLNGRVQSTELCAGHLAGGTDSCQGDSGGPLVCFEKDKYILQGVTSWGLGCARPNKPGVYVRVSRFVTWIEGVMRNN
